In publication PMC12661054, “The CIP2A-TOPBP1 axis facilitates mitotic DNA repair via MiDAS and MMEJ” (Nature Communications, 2025):
Square brackets hold non-standard residues; d marks the D form. Ends that are not written are not given here. fluorescein = fluorescein label on the N-terminus; pT = C[C@@H](OP(=O)(O)O)[C@H](N)C(=O)O

Biological target: T1, GST-TOPBP1(BRCT0-2 1-290) WT (human, UniProt Q92547 1-290)
T1 construct: TOPBP1, human, residues 1-290 (BRCT0-2); expressed from pGEX-6P-1, eluted with glutathione, no cleavage described; also called TOPBP1 BRCT0-1-2; TOPBP1 BRCT 0-1-2 WT; source: E. coli BL21(DE3), purified (HiTrap GST, Superdex 200)
Assay: fluorescence polarisation; 100 nM fluorescein-labelled SLX4 peptide, increasing concentrations of TOPBP1 BRCT fragment; room temperature; 25 mM HEPES pH 7.5, 150 mM NaCl, 1 mM EDTA, 0.25 mM TCEP, 0.002% Tween 20; single site with non-specific component
Settings: both partners purified

B1: Flu-SLX4_pT1260 (peptide)
peptide: fluorescein-GYGTSWLVPA[pT]PLASRSR
modifications: also: phosphothreonine at Thr1260 (position 4 or 11)
notes: residues before the SLX4 stretch, not SLX4; SLX4, human, amino acids 1253-1267, pT1260; also called fluorescein tagged SLX4 pT1260-containing peptide; pThr1260 SLX4 peptide; source: synthetic peptide
binding result: binds
